Test results from the RNAGym collection of RNA variant scans (doi:10.1073/pnas.2313332121).

B1: TPR t1 (parent)
chain: GACCAAUCUGCCCUCAGAGCUCGAGAACAUCUUCGGAUGCAGAGGAGGCAGGCUUCGGUGGCGCGAUAGCGCCAACGUCCUCAACCUCCAAUGCAUCCCACCACAUGAUGAUGCCUGAAGAGCCUUGGUUUUUUG

Variants of: B1
Experiment: polymerase ribozyme fitness, log enrichment relative to wild type (log ratio); higher = more active; in vitro selection for triplet polymerase activity
Outline: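 Mutant libraries for each subunit of a heterodimeric triplet polymerase ribozyme were made by PCR and then transcribed. Each library underwent one round of in vitro selection in triplicate: annealing with a biotinylated primer, the partner subunit and triplets, frozen incubation at −7 °C, gel excision of extended constructs, streptavidin-bead capture and RT-PCR. Input and output libraries were Illumina-sequenced, and only genotypes with ≥10 input reads and ≥1 read per output were kept. Fitness is the logarithm, base 2, of genotype enrichment over wild-type enrichment, computed from inverse-variance-weighted replicate averages.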

Row | Variant | polymerase ribozyme fitness (log ratio)
1 | GACCAAUCUGCCCUCAGAGCUGGAGAACAUCUUCGGAUGCAGAGGAGGCAGGCUUUGGUGGCGCGAUAGCGCCAACGUCCUCAACCUCCAAUGCAUCCCACCACAUGAUGAUGCCUGAAGAGCCUUGGUUUUUUG [C22G C56U] | -3.32
2 | GACCAAUCUGCACUCAGAGCUCGAGAACAUCUUCGGAUGCAGAGGAAGCAGGCUUCGGUGGCGCGAUAGCGCCAACGUCCUCAACCUCCAAUGCAUCCCACCACAUGAUGAUGCCUGAAGAGCCUUGGUUUUUUG [C12A G47A] | -1.98
3 | GACCAAUCUGCCCUCAGAGCUCGAGAACAUCUUCGGAUGCAGAGGAGGCAGGCUUCGGUCGCGCGAUAGCGCCAACGUCCUCAACCUCCAAUGCAUCCCACCACAUGAUGAUGCCUGAAGAGCCUUGGGUUUUUG [G60C U129G] | -1.43
4 | GACCAAUCUGCCCUCAGAGCUCGAGAACAUCUUCGGAUGCAGAGGAGACAGGCUUCGGUGGCGCGAUAGUUCCAACGUCCUCAACCUCCAAUGCAUCCCACCACAUGAUGAUGCCUGAAGAGCCUUGGUUUUUUG [G48A C70U G71U] | -0.828
5 | GACCAAUCUGCCCUCAGAGCUCGAGAACAUCUUCGGAUGCAGAGGUGGCAGGCUUCGGUGGCGCGAUAGCGCCAACGUUCUCAACCUCCAAUGCAUCCCACCACGUGAUGAUGCCUGAAGAGCCUUGGUUUUUUG [A46U C79U A105G] | -3.11
6 | GACCAAUCUGCCCUCAGAGCUCGAGAACAUCUUCGGAUGCAGAGGAGGCAGGCUUCGGUGGCGCGAGAGCGCCAACGUCCUCAACCUCCAAGGCAUCCGACCACAUGAUGAUGCCUGAAGGGCCUUGGUUUUUUG [U67G U92G C99G A121G] | -7.6
7 | GACCAAUCUGCCCUCAGAGCUCAAGAACAUCUUCGGAUGCAGAGGAGGCAGGCUUCGGUGGCCCGAUAGCGCCAAUGUCCUCAACCUCCAAUGCAUCCCAUCACAUGAUGGUGCCUGAAGAGCCUUGGUUUUUUG [G23A G63C C76U C101U A111G] | -5.22
8 | GACAAAUACGCCCUCAGAGCUCGAGAACAUCUUCGGAUGCAGAGGAGGCAGGCUUCGGUGGCGCGAUAGCGCCAACGUCCUUAACCUCCAAUGCAUCCCACCACAUGAUGAUGUCUGAAGAGCCUUGGUUUUUUG [C4A C8A U9C C82U C114U] | -2.35
9 | GACCAAUCUGCCCUCAGAGCUCGAGAACAUCUUCGGAUGCAGAGGAGGCAGGUUUCGGUGGCUCGAUAGCGCCAACGUCCUCAACCUCCAAUGCAUCCCACCACAUGAUGAUGCCUGAAGAGCCUUGGUUUUUUG [C53U G63U] | -1.11
10 | GAGCAAUCUGCCCUCAGAGCUCGAGAACAUCUUCGGAUGCAGAGGAGGCAGGGUUCGGUGGCGCGAUAGCGCCAACGUCCUCAACGUCCAAUGUAUCCCACCACAGGAUGAUGCCUGAAAAGCCUUGGUUUUUUG [C3G C53G C86G C94U U106G G120A] | -5.63
11 | GACCAAUCUGCCCUCAGAGCUCGAGAACAUCUUCGGAUACAGUGGAGGCAGGCUUCGGUGGCGCGAUAGCGCCAACGUCCUCAACGUCCAAUGCAUCCCACCACAUGAUGAUGCCUGAAGAGCCUUGGUUUUUUG [G39A A43U C86G] | -1.99
12 | GACCAAUCUGUCCUCAGAGCUCGAGAACAUCUUCGGAUGCAGUGGAGGCAGGCUUCGGUGGCGCGAUAGCGCCAACGUCCUCAUCCUCCAAUGCAUCCCACCACAUGAUGAAGCCUGAAGAGCCUUGCUUUUUUG [C11U A43U A84U U112A G128C] | -3.29
13 | GACCAAUCUGCCCUCAGAGCUCGAGAACAUCUUCGGAUGCAGAGGAGGCAGGCUACGGUGGCGCGAUAGCGCCAACGUCCUCAACGUCCAAUGCAUCCCACCACAUGAUGAUGCCUGAAGAGCCUUGGUAUUUUG [U55A C86G U130A] | -0.641
14 | GACCAAUCUGCCCUCAGAGCUCGAGAACAUCUUCGGAUGCAGAGGAGGCAGGCUUCGGUGGCGCGAUAGCGCCAACGUCCUCAACCUCCAAUGCAUCCCAUCACAUGAUGAUGCCUGAACAGCCUUGGUUUUUUG [C101U G120C] | -0.354
15 | GUCCAAUCUGCCCUCAGAGCUCGAGAACAUCUUCGGAUGCAGAGGAGGCAGGCUUAGGUGGCGCGAUAGCGCCAACGUCCUCGACCUCCAAUGCAUCCCACCACAUGAUGAUGCCUGAAGAGCCUUGGUUUUUUG [A2U C56A A83G] | -4.24
16 | GACCAAUCUGCCCUCAGAGCUCGAGAACAUCUUCGGAUGCAGAGGAGGCAGGCUUCGGUGGCGCGAUAGCGCCAACCUCCUCAACCUCCAAUGCAUCCCACCACAUGAUGAUGCCUGAAGAGCUUUGGUUUUUUG [G77C C124U] | 1.82
17 | GACCAAUCUGCCCUCAGAGCUCGAGAACAUCUUCGGCUGCAGAGGAGGCAGGCUUCGGUGGCGCGAUAGCGCCAACGUCCUCAACCUCCAAUGCAUUCCACCACAUGAUGAUGCCUGAAGAGCCUUGGUUUUUUG [A37C C97U] | -1.69
18 | GACCAAUCUGCUCUCAGUCCUCGAGAACAUCUUCAGAUGCAGAGGAGACAGGCUUCGGUGGCGCGAUAGCGACAACGUCCUCAACCUCCAAUGCAUCCCACCACAUGAUGAAGCCUGAAGAGCCUUGGUUUUUUG [C12U A18U G19C G35A G48A C72A U112A] | -6.64
19 | GACCAAUCUGCCCUCAUAGCUCGAGAACAUCUUCGGAUGCAGAGGAGGCAAGCUUCGGUGGCGCGAUAGCGCCAACGUCCUCAACCUCCAAUGCAUCCCACCACAUGAUGAUGCCUGAAGUGCCUUGGUUUUUUG [G17U G51A A121U] | -3.76
20 | GACCAAUCUGCCCUCAAAGCUCGAGAACAUCUUCGGAUGCAGAGGAGGCAGGCUUCGGUGGCGCGAUAGCGCCAACGUCCUCAACCUCCACUGCAUCCCACCACAUGAUGAUGCCUGAAGAGCAUUGGUUUAUUG [G17A A91C C124A U132A] | -0.557
21 | GACCAAUCUGCCCUCAGAGCUCAAGAACAUCUUCGGAAGCAGAGGAGGCAGGCUUCGCUGGCGCGAUAGCGCCAACGUCCUCAACCUCCAAUGCAUCCCACCACAUGAUGAUGCCUGAAGCGCAUUGGUUUUUUG [G23A U38A G58C A121C C124A] | -6.22
